Measurements: publication PMC5413351, “Structural basis of protein translocation by the Vps4-Vta1 AAA ATPase” (eLife, 2017)
Where no end group is shown, it is not given here.

Target: Vta1^VSL (S. cerevisiae, UniProt Q06263 1-330)
Test: cryo-EM structure
Conditions: both partners purified

B1: Vta1^VSL (domain or fragment)
chain: SYTKDELTKIMDRASKIEQIQKLAKYAISALNYEDLPTAKDELTKALDLLNSI
modifications: also: homodimer
- stoichiometry N: 2
